For experiment [1], the target named is T1, GPRC5D expressed on transfected HEK293 / 293T cells (UniProt Q9NZD1 1-345, limits assumed).
T1 construct: whole, on cells
Briefly: flow cytometry, titration of fusion protein supernatant on GPRC5D-transfected HEK293 cells, anti-His detection, % Binding. (Flow cytometry measures light scatter and fluorescence of single cells or particles in a stream.)

The target in experiment [2] is T1, GPRC5D expressed on transfected HEK293 …. Put plainly: flow cytometry, titration of fusion protein supernatant on GPRC5D-transfected HEK293 cells, anti-BCMA detection, % Binding.
Experiment [3] has as its target T2, CD38 on Daudi cells (human, UniProt P28907 1-300).
T2 construct: whole, on cells; Endogenous CD38 of Daudi cells
Put plainly: flow cytometry, titration of fusion protein supernatant on Daudi cells (CD38), a-His-PE detection, % Binding. As for the experimental part: (§1) Daudi cells were obtained from ATCC and cultured in RPMI containing 10% FCS. They were stained for BCMA using anti-BCMA-PE labeled antibody (BioLegend, #357504) and for CD38 using anti-CD38-PE labeled antibody (BioLegend, #356604), or stained with BCMA-containing fusion proteins as described herein. The cells were incubated with antibody or supernatant from A493 or A494 producing cells as follows. The Daudi cells were blocked with human Fc block (BD Biosciences, #BDB564129) for 10 minutes, washed and then diluted to 5×10e5 cells per 50 µl. For each sample, 50 µl of cells was aliquoted per well. For the direct stains, 5 µl of antibody in 50 µl was incubated with the cells for 30 minutes at 4° C. After washing with FACS buffer (FB: PBS, 1% BSA, 0.1% sodium azide), the cells were fixed with a final concentration of 2% paraformaldehyde in FB. For the BCMA fusion protein binding, 50 µl of A493 or A494 supernatant or 3x serial dilution of the supernatant in FB, was added and incubated for 30 minutes at 4° C. The cells were washed 2 times with FB and then stained with anti-His-PE antibody (R&D systems, #ICO5OP) or anti-BCMA-PE antibody (BioLegend, #357504) for 30 minutes at 4° C., the cells were pelleted and washed 2 times in FB and then fixed as above. The samples were analyzed on a BD Accuri 6 flow cytometer and analyzed using BD Accuri 6 software.

The target in experiment [4] is T2, CD38 on Daudi cells. Briefly: flow cytometry, titration of fusion protein supernatant on Daudi cells (CD38), a-BCMA-PE detection, % Binding. The method, then: as §1
The target in experiment [5] is T1, GPRC5D expressed on transfected HEK293 …. Briefly: binding of HEK293 supernatants to GPRC5D-expressing HEK293 cells.

Where “and” joins values, the source holds several entries; their conditions need not be identical. Equal entries are not always repeated.

T1 sequence (Q9NZD1 whole entry): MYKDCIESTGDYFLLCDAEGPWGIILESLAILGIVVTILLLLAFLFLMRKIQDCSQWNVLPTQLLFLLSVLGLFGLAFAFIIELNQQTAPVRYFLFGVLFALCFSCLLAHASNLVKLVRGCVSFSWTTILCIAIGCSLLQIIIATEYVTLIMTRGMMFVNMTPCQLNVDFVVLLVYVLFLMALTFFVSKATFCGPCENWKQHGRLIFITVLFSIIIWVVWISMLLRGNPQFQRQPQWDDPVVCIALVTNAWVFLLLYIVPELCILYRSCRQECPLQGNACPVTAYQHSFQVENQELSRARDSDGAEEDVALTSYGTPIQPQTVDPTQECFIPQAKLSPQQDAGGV

B1: anti-GPRC5D scFv-BCMA ECD-His fusion protein, construct 539 (other)
chain: QSVVTQPPSMSAAPGQQVTISCSGGNSNIERNYVSWYLQLPGTAPKLVIFDNDRRPSGIPDRFSGSKSGTSATLGITGLQTGDEADYYCGTWDSSLRGWVFGGGTKLTVLGSRGGGGSGGGGSGGGGSLEMAEVQLVESGGGLIQPGGSLRLSCAASGFTFSNYAMNWVRQAPGKGLEWVSTINGRGSSTIYADSVKGRFTISRDNSKNTLYLQMNSLRAEDTATYYCARYISRGLGDSWGQGTLVTVSSGGGGSGGGGSGGGGSMLQMAGQCSQNEYFDSLLHACIPCQLRCSSNTPPLTCQRYCNASVTNSVKGTNAHHHHHH
notes: scFv of construct 525 - G4Sx3 linker - BCMA ECD - His; Tested as HEK supernatant; also called A539; anti-GPRC5D-BCMA fusion protein
As usually defined, the EC50 is the concentration that produces a half-maximal response. Read a low EC50 as higher potency in that assay. Consider B1, for which the half-maximal effective concentration (EC50) is 0.0193 µg/mL and 0.572 nM in experiment [1]; 0.00669 µg/mL and 0.198 nM in experiment [2].

B2: BCMA-anti-CD38 fusion protein, construct #494 (BCMA ECD C-terminal to the anti-CD38 scFv, C-terminal His tag) (other)
chain: DIQMTQSPSSLSASVGDRVTITCRASQGIRSWLAWYQQKPEKAPKSLIYAASSLQSGVPSRFSGSGSGTDFTLTISSLQPEDFATYYCQQYNSYPLTFGGGTKVEIKGGGGSGGGGSGGGGSGGGGSQVQLVQSGAEVKKPGSSVKVSCKAFGGTFSSYAISWVRQAPGQGLEWMGRIIRFLGIANYAQKFQGRVTLIADKSTNTAYMELSSLRSEDTAVYYCAGEPGERDPDAVDIWGQGTMVTVSSGGGGSGGGGSGGGGSGGGGSMLQMAGQCSQNEYFDSLLHACIPCQLRCSSNTPPLTCQRYCNASVTNSVKGTNAHHHHHH
notes: also called A494
Take B2: the concentration giving a half-maximal response (EC50) with CD38 on Daudi cells [3] is 0.00315 µg/mL and 0.093 nM; in the experiment with CD38 on Daudi cells [4], 0.0123 µg/mL and 0.364 nM.

B3: BCMA-anti-CD38 fusion protein, construct #493 (BCMA ECD N-terminal to the anti-CD38 scFv, C-terminal His tag) (other)
chain: MLQMAGQCSQNEYFDSLLHACIPCQLRCSSNTPPLTCQRYCNASVTNSVKGTNAGGGGSGGGGSGGGGSGGGGSDIQMTQSPSSLSASVGDRVTITCRASQGIRSWLAWYQQKPEKAPKSLIYAASSLQSGVPSRFSGSGSGTDFTLTISSLQPEDFATYYCQQYNSYPLTFGGGTKVEIKGGGGSGGGGSGGGGSGGGGSQVQLVQSGAEVKKPGSSVKVSCKAFGGTFSSYAISWVRQAPGQGLEWMGRIIRFLGIANYAQKFQGRVTLIADKSTNTAYMELSSLRSEDTAVYYCAGEPGERDPDAVDIWGQGTMVTVSSHHHHHH
notes: also called A493; N-terminal construct
As for B3, the EC50 was 0.00218 µg/mL and 0.0642 nM in the experiment with CD38 on Daudi cells [3]; 0.0056 µg/mL and 0.165 nM with CD38 on Daudi cells [4].

B4: anti-GPRC5D scFv-BCMA ECD-His fusion protein, construct 536 (other)
chain: QSVLTQPASVSGSPGQSLTISCTGTSNDVGAYKYVSWYQQYPGKAPKLILYDVFKRPSGVSNRFSGSKSDNTASLTISGLQAEDEADYYCFSLTSSNTYVFGTGTKVTVLGSRGGGGSGGGGSGGGGSLEMAQMQLVQSGAEVKKPGASVKVSCKASGYTFNRYAITWVRQAPGQGLEWMGWISAYNGNSHYAQKLQGRVTMTTDTSTGTAYMELRRLRSDDTAVYYCARMAYDSWGQGTLVTVSSGGGGSGGGGSMLQMAGQCSQNEYFDSLLHACIPCQLRCSSNTPPLTCQRYCNASVTNSVKGTNAHHHHHH
notes: scFv of construct 522 - linker - BCMA ECD - His; Tested as HEK supernatant; also called A536; anti-GPRC5D-BCMA fusion protein
Consider B4, for which the EC50 in experiment [1] is 0.86 nM and 0.0287 µg/mL; in experiment [2] it was 0.00509 µg/mL and 0.152 nM.

B5: anti-GPRC5D scFv, construct 522 (scFv)
scFv: QSVLTQPASVSGSPGQSLTISCTGTSNDVGAYKYVSWYQQYPGKAPKLILYDVFKRPSGVSNRFSGSKSDNTASLTISGLQAEDEADYYCFSLTSSNTYVFGTGTKVTVLGSRGGGGSGGGGSGGGGSLEMAQMQLVQSGAEVKKPGASVKVSCKASGYTFNRYAITWVRQAPGQGLEWMGWISAYNGNSHYAQKLQGRVTMTTDTSTGTAYMELRRLRSDDTAVYYCARMAYDSWGQGTLVTVSSHHHHHH
notes: VL-G4Sx3-VH-His; Tested as HEK293 supernatant; also called A522
On to B5, for which the binding result in experiment [5] is given as “binds”.

B6: anti-GPRC5D scFv-BCMA ECD-His fusion protein, construct 538 (other)
chain: SSELTQDPAVSVALGQTVRITCQGDSLRSYYASWYQQKPGQAPVLVIYGKNNRPSGIPDRFSGSSSGNTASLTITGAQAEDEADYYCNSRDSSGNPPVVFGGGTKLTVLGSRGGGGSGGGGSGGGGSLEMAQVQLVESGGGLVHPGGSLRLSCAASGFTFRSHSMNWVRQAPGKGLEWVSSISSDSTYTYYADSVKGRFTISRDNAKNSLYLQMNSLRAEDTAVYYCARSGGQWKYYDYWGQGTLVTVSSGGGGSGGGGSGGGGSMLQMAGQCSQNEYFDSLLHACIPCQLRCSSNTPPLTCQRYCNASVTNSVKGTNAHHHHHH
notes: scFv of construct 524 - G4Sx3 linker - BCMA ECD - His; also called A538; bridging protein #538
For B6, the EC50 in experiment [1] was 0.00608 µg/mL and 0.182 nM; in experiment [2], 0.00225 µg/mL and 0.067 nM.

B7: anti-GPRC5D scFv, construct 525 (scFv)
scFv: QSVVTQPPSMSAAPGQQVTISCSGGNSNIERNYVSWYLQLPGTAPKLVIFDNDRRPSGIPDRFSGSKSGTSATLGITGLQTGDEADYYCGTWDSSLRGWVFGGGTKLTVLGSRGGGGSGGGGSGGGGSLEMAEVQLVESGGGLIQPGGSLRLSCAASGFTFSNYAMNWVRQAPGKGLEWVSTINGRGSSTIYADSVKGRFTISRDNSKNTLYLQMNSLRAEDTATYYCARYISRGLGDSWGQGTLVTVSSHHHHHH
notes: VL-G4Sx3-VH-His; Tested as HEK293 supernatant; also called A525
Turning to B7, the binding result in experiment [5] is given as “binds”.

B8: anti-GPRC5D scFv, construct 524 (scFv)
scFv: SSELTQDPAVSVALGQTVRITCQGDSLRSYYASWYQQKPGQAPVLVIYGKNNRPSGIPDRFSGSSSGNTASLTITGAQAEDEADYYCNSRDSSGNPPVVFGGGTKLTVLGSRGGGGSGGGGSGGGGSLEMAQVQLVESGGGLVHPGGSLRLSCAASGFTFRSHSMNWVRQAPGKGLEWVSSISSDSTYTYYADSVKGRFTISRDNAKNSLYLQMNSLRAEDTAVYYCARSGGQWKYYDYWGQGTLVTVSSHHHHHH
notes: VL-G4Sx3-VH-His; Tested as HEK293 supernatant; also called A524
With B8, in experiment [5], the binding result is “binds”.

B9: anti-GPRC5D scFv-BCMA ECD-His fusion protein, construct 537 (other)
chain: QSVLTQPPSASGTPGQRVTISCSGSRSNVGGNYVFWYQQVPGATPKLLIYRSNQRPSGVPDRFAGSKSGSSASLAISGLRSEDEADYYCATWDDSLSGFVFGTGTKVTVLGSRGGGGSGGGGSGGGGSLEMAEVQLVESGGGLVKPGGSLRLSCAASGFTFSDYYMSWIRQAPGKGLEWVSYISSSGSTIYYADSVKGRFTISRDNAKNSLYLQMNSLRAEDTAVYYCARGYGKAYDQWGQGTLVTVSSGGGGSGGSMLQMAGQCSQNEYFDSLLHACIPCQLRCSSNTPPLTCQRYCNASVTNSVKGTNAHHHHHH
notes: scFv of construct 523 - linker - BCMA ECD - His; Tested as HEK supernatant; also called A537; anti-GPRC5D-BCMA fusion protein
As to B9, the EC50 in experiment [1] is 0.0156 µg/mL and 0.469 nM; in experiment [2], 0.00553 µg/mL and 0.166 nM.

B10: anti-GPRC5D scFv, construct 523 (scFv)
scFv: QSVLTQPPSASGTPGQRVTISCSGSRSNVGGNYVFWYQQVPGATPKLLIYRSNQRPSGVPDRFAGSKSGSSASLAISGLRSEDEADYYCATWDDSLSGFVFGTGTKVTVLGSRGGGGSGGGGSGGGGSLEMAEVQLVESGGGLVKPGGSLRLSCAASGFTFSDYYMSWIRQAPGKGLEWVSYISSSGSTIYYADSVKGRFTISRDNAKNSLYLQMNSLRAEDTAVYYCARGYGKAYDQWGQGTLVTVSSHHHHHH
notes: VL-G4Sx3-VH-His; Tested as HEK293 supernatant; also called A523
Take B10: the binding result in experiment [5] is listed as “binds”.

Source of the values: patent US20230220095A1 (ALETA BIOTHERAPEUTICS, published 2023).
